This experiment has as its target phosphorylated β-catenin (UniProt P35222). Briefly: co-immunoprecipitation (IP-GFP), western blot densitometry. The note with it: Triton-X100 cell extracts containing 50 mM NaF; SW480 extract as source of β-catenin; parent: 1. (In general: Immunoblotting shows a protein as a band on a membrane.)
UniProt P35222, sequence (P35222 whole entry): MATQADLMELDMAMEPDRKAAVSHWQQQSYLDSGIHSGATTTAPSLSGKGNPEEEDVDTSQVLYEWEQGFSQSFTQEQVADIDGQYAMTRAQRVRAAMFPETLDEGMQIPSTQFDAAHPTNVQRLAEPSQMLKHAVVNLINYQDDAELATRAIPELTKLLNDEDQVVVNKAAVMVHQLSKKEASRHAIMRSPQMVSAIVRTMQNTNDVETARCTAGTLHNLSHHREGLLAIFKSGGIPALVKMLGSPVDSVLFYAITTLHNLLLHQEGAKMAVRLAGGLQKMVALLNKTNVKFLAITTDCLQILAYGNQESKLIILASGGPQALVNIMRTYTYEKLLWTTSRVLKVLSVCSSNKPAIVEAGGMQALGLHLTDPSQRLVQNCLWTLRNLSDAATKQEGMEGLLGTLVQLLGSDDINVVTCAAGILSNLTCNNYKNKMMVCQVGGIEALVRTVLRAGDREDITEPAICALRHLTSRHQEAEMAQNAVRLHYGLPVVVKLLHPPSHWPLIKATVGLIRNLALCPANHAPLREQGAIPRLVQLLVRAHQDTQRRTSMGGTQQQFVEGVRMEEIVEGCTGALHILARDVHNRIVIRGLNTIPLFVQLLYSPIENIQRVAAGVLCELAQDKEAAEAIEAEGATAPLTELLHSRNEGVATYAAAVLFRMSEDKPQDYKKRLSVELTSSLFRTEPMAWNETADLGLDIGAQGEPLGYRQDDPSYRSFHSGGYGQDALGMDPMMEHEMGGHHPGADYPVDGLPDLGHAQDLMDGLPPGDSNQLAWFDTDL

yAPC1289 (from UniProt P25054) 20R1µ: the other: Ratio Phospho/total turned out to be 0.9.
